Assay: soluble on expression in E. coli; label from the status in PepcDB or PDB records
With “MGSDKIHHHHHHMSSSGYVPDNKNLKKSSGTPNLFFDSRKNIFFKRDEKNVAYEVTSTQLPAMIGGAFVDLFMTKGHMREPHWHPNAWELDVVVSGEAVTSILNPETNQLQNYHMKAGQTVFIPMGWWHWITAVTEEVQLHLFFNNDQFETAEGSDILRLTPPEVFQAAYGVSAEKLGKDLSPIKESVVIGPPNLNRIKGVKESDDSNIVVTLNGQITSCEIE” the “soluble on expression in E. coli” value was “not soluble”. In the case of “MGSDKIHHHHHHEILKVLRKNNDFQNWEEIKNRLHPIIIKHVEGEPVYQFFDTLNDNSFEKNGQLISLSTQPINSFVPYHIHNYVEMMVVLSGSCVIKTANEAITLNENEIIIIGCKTIHKVEPIDDKTIMIKIALKRAAFSLEDLVFLTHSHNAQSVSSIVFSLLSSDDSHGAFNVFRTHHDVHVVNKIYNIISEYYCPDDYSNQIIKLEILELFIRLIRIASKDAVFQTQKEVQNNNEIDLLTLLLYIERNYKTINLKSMAKYFNFNPNYLSSILREKTGYTFIKLVHLQRINVAAEYLALTNTPVEGISLAVGYENPSYFYKMFKKYMGCSPKEYRQKQIAG”, the “soluble on expression in E. coli” value is reported as “not soluble”. For “MNIFNPNHDRKAIVIFSGGQDSTTCLFQAIAEYGKENIEAITFQYGQRHAIELEKARTIAQDLGIKQTLIDTSVMKAITHNALMDEQAHIEQKENELPNTFVDGRNALFLLYAAIYAKGQGIQDIITGVCETDFSGYPDCRDVFIKSMNVTLNLAMDYPIPISKTPLMYLTKAQTWQLADEFRRIRLCTKTYSHLL”, the “soluble on expression in E. coli” value was “not soluble”. For “MSLGNNYAAKVNDQEISRGQFENAFNSERNRMQQQLGDQYSELAANEGYMKTLRQQVLNRLIDEALLDQYARELKLGISDEQVKQAIFATPAFQVDGKFDNSRYNGILNQMGMTADQYAQALRNQLTTQQLINGVAGTDFMLKGETDELAALVAQQRVVREATIDVNALAAKQPVTEQEIASYYEQNKNNFMTPEQFRVSYIKLVAATMQQPVSDADIQSYYDQHQDQFTQPQRTRYSIIQTKTEDEAKAVLDELNKGGDFAALAKEKSADIISARNGGDMGWLEDATIPDELKNAGLKEKGQLSGVIKSSVGFLIVRLDDIQPAKVKSLDEVRDDIAAKVKHEKALDAYYALQQKVSDAASNDTESLAGAEQAAGVKATQTGWFSKDNLPEELNFKPVADAIFNGGLVGENGASGINSDIITVDGDRAFVLRVSEHKPEAVKPLADVQEQVKALVQHNKAEQQAKVDAEKLLVDLKAGKGAEAMQAAGLKFGEPKTLSRSGRDPISQAAFALPLPAKDKPSYGMATDMQGNVVLLALDEVKQGSMPEDQKKAMVQGITQNNAQIVFEALMSNLRKEAKIKIGDALEQQEGHHHHHH”, the “soluble on expression in E. coli” value was “soluble”. In the case of “MANQVNGNAVQLKEEEEPMDTSSVTHTEHYKTLIEAGLPQKVAERLDEIFQTGLVAYVDLDERAIDALREFNEEGALSVLQQFKESDLSHVQNKSAFLCGVMKTYRQREKQGSKVQESTKGPDEAKIKALLERTGYTLDVTTGQRKYGGPPPDSVYSGVQPGIGTEVFVGKIPRDLYEDELVPLFEKAGPIWDLRLMMDPLSGQNRGYAFITFCGKEAAQEAVKLCDSYEIRPGKHLGVCISVANNRLFVGSIPKNKTKENILEEFSKVTGLTEGLVDVILYHQPDDKKKNRGFCFLEYEDHKSAAQARRRLMSGKVKVWGNVVTVEWADPVEEPDPEVMAKVKVLFVRNLATTVTEEILEKSFSEFGKLERVKKLKDYAFVHFEDRGAAVKAMDEMNGKEIEGEEIEIVLAKPPDKKRKERQAARQASRSTAYEDYYYHPPPRMPPPIRGRGRGGGRGGYGYPPDYYGYEDYYDDYYGYDYHDYRGGYEDPYYGYDDGYAVRGRGGGRGGRGAPPPPRGRGAPPPRGRAGYSQRGAPLGPPRGSRGGRGGPAQQQRGRGSRGSRGNRGGNVGGKRKADGYNQPDSKRRQTNNQQNWGSQPIAQQPLQQGGDYSGNYGYNNDNQEFYQDTYGQQWK”, the “soluble on expression in E. coli” value is reported as “soluble”. In the case of “MIDKQSGIPIYIQIQSEIKKKMEDGVWKVGTSIPAERQLAEMFHVSRMTVRQAIQGLVDDNILQRRVGAGTFIAEKKLTERLEAVTSFTNLMLQEGKVPSTRIVSYGIRPASTQEQEALQLPENSNVMKIERIRYGDRVPILYEVAAIPEKIASLLTKEDIMDSLYKAIELKLGQPIGEAEQIMEASLVSEKIAPYLDVKLGSPVMKLRQITTLEDGRPFEFTRSQYVGSRFQFVARIKQ”, the “soluble on expression in E. coli” value is reported as “not soluble”. For “MSLKKILLLLANGFEAVEASVFTDVLGWNMLEGDGSTLVVTAGMHDKIKCTWNFTVLPEIKIKNVNVDDFEALVIPGGFEEAGFFIDAYSNSFLDLIRTFNAKGKIIASVCVGALSIGKSGILKGRTATTYNLNDRKRQYELSKFGVKILENQPIVIDKNVITSYNPSTAFNVAFTLLEMLTSTENCTKVKKLMGFIEGHHHHHH”, the “soluble on expression in E. coli” value was “soluble”. In the case of “MTVSNNGMAMPSVPPKIDCSEAIQDSPKFRATVAQHAMYFNRLENRLNEMLRHITAMIDFSKNYTNTFYKLTVSVNQLCDESFSGNPLASTTFQGLSEAYAHTVNLFRTYFDHSNVVTFTKLSNFIKIELTKVAESRAHFENMSQSMDDALVKNASISRQKPADATEGRNALTAVGTCFAHTTLDYVANINIAHAHKDHMILDALWTLVRESSAFFSKGHATFDEWTAADNGAIADTIQTFAAKSKLIERKMQDVHSLVPKEMFQHPSGMPIEPDVMMEGYLYKRSSNAFKTWNRRWFQIKDKQLLYSHRSTDLEPATIMEENLRICLVRPAPSNIDRIGCFELVTPTRIHLLQADSESLCQDWMRALQRTILALHEGDSVDVASTSPRNKTTSMSSGVTLTSANAISPLSNAMDVTKGRSVSDPASTYTSANTSSISTAAGFSSSTTAFEQVRRVPGNEVCADCGSPAPKWVSINLGVVLCIECSGAHRSLGVQTSKVRSLCMDSIDNELRDVLLALGNRQVNEIFLAHLPPADSIVPPQINEKSARPAREAWIKAKYVERRFAVAEDTRARSSATNRQEHLKHKTSIGGNSSSNGVNRSSSYADVQDAESGGLLDADPWSADLSVPVPTASKRLSACGSDTNLDAIGSSSIDTKTVEWDSVKEACECGDLLALMTAYAQGFDLNALHNGTTALHIATRNGQTAAVEFLLLNGAKINMLDEKLNTPLHLAAKEGHTLPVCQLLKRGADSNLANVDSKTPLDIAMECTHADIVTLFRVTIMRNDFNADFNNPMDETVEAVISDIARRAATEKEQKKTESLKSTSDI”, the “soluble on expression in E. coli” value is reported as “not soluble”. For “MLIDMILAFSVAPTETPNNKAEMADVVAEAIRVVRESGLPNETNAMFTLIEGEWDEVMAVVKKATDAVLAVSPRASLVIKADIRPGYTGQLQQKVASVERVLAGDSES”, the “soluble on expression in E. coli” value was “not soluble”. For “LGTQMGIQTPIRIEAFDNSNIQGVDPVSAMVTFVDGKPDKKNYRKYKIKTVKGPDDYKSMREVVRRRYSRVLNEGLPLPDLIIVDGGKGHMNGVIDVLQNELGLDIPVAGLQKNDKHQTSELLYGASAEIVPLKKNSQAFYLLHRIQDEVHRFAI”, the “soluble on expression in E. coli” value was “not soluble”. With “MALPQRQIVRAENVKIGISWQCALCDLDIYARPLPGAEVIYFGRMVTTHGRYWKDYRNSPQPTNGYETISFDVPLDLRPVVIAINFYEGEAPQGVSGEIRIAVDENTYAAPFHISATRGNRGQGVAKIIETGKASGNHSVIVDPLHIIRAR” the “soluble on expression in E. coli” value was “not soluble”. With “MGSDKIHHHHHHMEKKRILFLANHFITLYSFRKEMIKEMVKKGHELYLSLPKSEENKYFEDLGCHIVETEIDRRGVNPMKDLKLIYFYKKMIPLVNPDIIFSYTIKPNIYGTIASNGKYKQVCNITGTGETFLKRSIVSTICKVLYKLSIKKCYKVFFQNTGDRDFFIKEGLIRENYAMLPGSGCNLQQHVFMPLPEGDEIRFLFIGRVMKLKGIDQYLQAAEIVKKKYPNTKFYIAGWNEQLEYMKLVEEAQKTGSVEYIGFRKDIDQWIEKCHCTILPSHGGEGVPNVLLESSATGRICIGSKINGTMDVIDDGKTGYLFNTGDGEDLARQIEKFIQLSPEEKASMGKVAREKVEREFDRQIVVKAYLDEVTKC” the “soluble on expression in E. coli” value was “not soluble”. In the case of “MGSDKIHHHHHHMAKVRKEDKLPLRMKQLGKIYRLIEQFEEISRIDLSKLSQLAPATITSLTRELIEKKLVIERAVQNTENRGRPAVGLCVSPFYWQSLCATLTYDHFDILLCELDGTTIAQEVYPLDLSDLSSLEQMLPCYFEDFLSKVGTKLSRPITFSIAVAGKLHHLSGFLQRLGEIELNVDLTSLFAGYFDIPIIVTEYFETWLLAESTLGSVIGYDDVIFLQIDDVINLSVLSKGVILQSDHKTCMNIDQIIVPRLYPMQDKINQHLFELERYQIHNQLTYKAFCQFIDLYYPNNNLINTTEKINFLCKKAQLQDPLALEILANIADIIAYILSNLVNLFSPEKIMFTSRLLSVKHVFLNQINQRLAHYLHNSKICEVMTSQYEWNSHEVIAAAIKQKIYDGSLLVYMEKY”, the “soluble on expression in E. coli” value is reported as “not soluble”.
